Experimental data: paper PMC5758902

T1: NgoS E687A (Neisseria gonorrhoeae, UniProt Q5F5J4 1-814, E687A)
T1 sequence: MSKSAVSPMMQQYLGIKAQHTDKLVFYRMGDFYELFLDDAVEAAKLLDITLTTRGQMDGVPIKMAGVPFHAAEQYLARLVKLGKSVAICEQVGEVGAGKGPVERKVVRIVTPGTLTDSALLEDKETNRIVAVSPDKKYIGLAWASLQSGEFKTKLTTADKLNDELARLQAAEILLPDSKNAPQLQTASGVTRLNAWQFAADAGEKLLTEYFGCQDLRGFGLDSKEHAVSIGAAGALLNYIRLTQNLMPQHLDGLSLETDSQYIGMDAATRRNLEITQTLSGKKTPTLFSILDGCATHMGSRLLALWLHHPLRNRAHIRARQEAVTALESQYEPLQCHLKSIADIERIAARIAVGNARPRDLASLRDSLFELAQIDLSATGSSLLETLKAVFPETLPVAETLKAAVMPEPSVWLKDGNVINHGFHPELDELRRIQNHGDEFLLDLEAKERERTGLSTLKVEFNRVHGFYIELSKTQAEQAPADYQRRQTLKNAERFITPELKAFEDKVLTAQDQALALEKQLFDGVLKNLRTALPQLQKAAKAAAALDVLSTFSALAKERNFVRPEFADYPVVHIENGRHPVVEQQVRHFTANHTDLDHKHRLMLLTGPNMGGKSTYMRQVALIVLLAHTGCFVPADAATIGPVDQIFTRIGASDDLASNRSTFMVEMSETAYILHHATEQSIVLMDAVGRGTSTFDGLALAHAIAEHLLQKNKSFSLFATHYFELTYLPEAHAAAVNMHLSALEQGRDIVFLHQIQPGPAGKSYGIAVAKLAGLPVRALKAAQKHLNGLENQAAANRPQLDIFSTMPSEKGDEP

T2: NgoS (MutS) (Neisseria gonorrhoeae, UniProt Q5F5J4 1-814)
T2 sequence: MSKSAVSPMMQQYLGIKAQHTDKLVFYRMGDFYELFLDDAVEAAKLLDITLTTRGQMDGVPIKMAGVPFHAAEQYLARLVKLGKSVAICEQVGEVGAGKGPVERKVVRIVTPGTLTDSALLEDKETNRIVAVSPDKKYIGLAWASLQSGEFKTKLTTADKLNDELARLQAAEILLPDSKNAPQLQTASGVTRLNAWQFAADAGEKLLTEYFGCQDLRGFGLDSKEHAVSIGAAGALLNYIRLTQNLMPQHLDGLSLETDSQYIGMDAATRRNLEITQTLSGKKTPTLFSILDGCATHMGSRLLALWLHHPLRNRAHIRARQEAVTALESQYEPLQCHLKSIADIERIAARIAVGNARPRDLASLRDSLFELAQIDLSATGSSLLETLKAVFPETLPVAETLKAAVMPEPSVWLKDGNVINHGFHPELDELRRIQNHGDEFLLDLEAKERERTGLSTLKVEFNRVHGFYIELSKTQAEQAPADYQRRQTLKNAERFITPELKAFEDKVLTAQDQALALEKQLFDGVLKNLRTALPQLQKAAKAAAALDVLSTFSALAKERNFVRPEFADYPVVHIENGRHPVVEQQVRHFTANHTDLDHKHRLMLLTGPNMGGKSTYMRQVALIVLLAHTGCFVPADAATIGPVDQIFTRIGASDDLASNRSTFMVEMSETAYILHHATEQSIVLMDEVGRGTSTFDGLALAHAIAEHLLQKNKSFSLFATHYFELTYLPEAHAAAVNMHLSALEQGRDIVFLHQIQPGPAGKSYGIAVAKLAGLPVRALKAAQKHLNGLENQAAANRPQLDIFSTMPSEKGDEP


Key:
NgoS E687A = target: T1, NgoS E687A; assay: fluorescence anisotropy
NgoS (MutS) [1] = target: T2, NgoS (MutS); assay: fluorescence anisotropy
NgoS (MutS) [2] = target: T2, NgoS (MutS); assay: DLS

| Binder | binding result (NgoS E687A) | binding result (NgoS (MutS) [1]) | binding result (NgoS (MutS) [2]) |
| --- | --- | --- | --- |
| 31mer G:T heteroduplex (dsDNA) DNA 1: GCGATGTTGCTGACGCTGGTGCCTGGCAGCT DNA 2: AGCTGCCAGGCACCAGTGTCAGCAACATCGC | binds | binds |  |
| 30mer G:T heteroduplex (dsDNA) DNA 1: AGCTGCCAGGCACCAGTGTCAGCGTCCTAT DNA 2: ATAGGACGCTGACACTGGTGCTTGGCAGCT |  |  | binds |
| 30mer homoduplex (dsDNA) DNA 1: AGCTGCCAGGCACCAGTGTCAGCGTCCTAT DNA 2: ATAGGACGCTGACACTGGTGCCTGGCAGCT |  |  | binds |
